Reference: publication PMC3832974

Biological target: human alpha-thrombin (Homo sapiens, UniProt P00734;P00734 328-363;364-622)
Assay: dot blot immunoenzymatic assay on cloth; 13.5 nM thrombin; UV cross-linked; PBS (0.01 M phosphate pH 7.4, 0.85% NaCl), 13.5 nM thrombin, 20 min, room temperature; aptamers (10 uM) spotted in 0.1 M Tris-HCl pH 8.0, 0.01 M MgCl2, 0.15 M N

B1: Apt 4 (ssDNA)
DNA: AGATGCCTGTCGAGCATGCTCTTTGGAGACAGTCCGTGGTAGGGCAGGTTGGGGTGACTTCGTGGAAGAAGCGAGACGGTGTAGCTAAACTGCTTTGTCGACGGG
binding result: binds
